The assay deals with T1, HLA-B*07:02 (human).
T1 construct: also called peptide-receptive MHC molecules
Kind of assay: UV-exchange b2m ELISA; exchange-yield grade. The text has this: Candidate peptides for T cell based therapies according to the present invention were further tested for their MHC binding capacity (affinity). The individual peptide-MHC complexes were produced by UV-ligand exchange, where a UV-sensitive peptide is cleaved upon UV-irradiation, and exchanged with the peptide of interest as analyzed. Only peptide candidates that can effectively bind and stabilize the peptide-receptive MHC molecules prevent dissociation of the MHC complexes. To determine the yield of the exchange reaction, an ELISA was performed based on the detection of the light chain (β2m) of stabilized MHC complexes. The assay was performed as generally described in Rodenko et al. (Rodenko et al., 2006).
96 well MAXISorp plates (NUNC) were coated over night with 2 ug/ml streptavidin in PBS at room temperature, washed 4× and blocked for 1 h at 37° C. in 2% BSA containing blocking buffer. Refolded HLA-A*02:01/MLA-001 monomers served as standards, covering the range of 15-500 ng/ml. Peptide-MHC monomers of the UV-exchange reaction were diluted 100-fold in blocking buffer. Samples were incubated for 1 h at 37° C., washed four times, incubated with 2 ug/ml HRP conjugated anti-β2m for 1 h at 37° C., washed again and detected with TMB solution that is stopped with […]. Absorption was measured at 450 nm. Candidate peptides that show a high exchange yield (preferably higher than 50%, most preferred higher than 75%) are generally preferred for a generation and production of antibodies or fragments thereof, and/or T cell receptors or fragments thereof, as they show sufficient avidity to the MHC molecules and prevent dissociation of the MHC complexes.
Background: In an ELISA, binding on a coated surface is turned into a signal by an enzyme label.

As to GPRNAQRVL, the peptide exchange yield was 50 to 75%. VPSEIDAAF displayed a peptide exchange yield of 20 to 50%. Next, FPFQPGSV: 50 to 75%; LPWDTSTTLF: 50 to 75%.

EPVTSSLPNF yielded a peptide exchange yield of 20 to 50%. In turn, TPLATTQRFTY gave a peptide exchange yield of 20 to 50%. Molecule NPIGDTGVKF had a peptide exchange yield of 50 to 75%. Next, TPLATTQRF: 20 to 50%. SPMDTFLLI came in with a peptide exchange yield of 20 to 50%. Next, LPEISTRTM: 20 to 50%; FPAMTESGGMIL: 50 to 75%; SPTHVTQSL: 50 to 75%. Next, LPSVSGVKTTF: 20 to 50%; HPKTESATPAAY: 20 to 50%. Next, VPYRVVGL: 20 to 50%. Consider LYVDGFTHW, for which the peptide exchange yield was in the range of 20 to 50%.

NVLTSTPAF: the peptide exchange yield was 20 to 50%.

Molecule TAKTPDATF returned a peptide exchange yield of 20 to 50%. Take LPLDTSTTL: the peptide exchange yield fell in the range of 50 to 75%. On to SPLPVTSLI, for which the peptide exchange yield is 50 to 75%.

In turn, SPLPVTSLL had a peptide exchange yield of 50 to 75%. In turn, SPVPVTSLF yielded a peptide exchange yield of 50 to 75%.

The molecule RPRALRDLRIL registered a peptide exchange yield of 50 to 75%. Next, SPSTIKLTM: 50 to 75%. Then LPAGTTGSLVF, with 50 to 75%.

In the case of PGGTRQSL, the peptide exchange yield lay within 10 to 20%. Next, FPFVTGSTEM: 20 to 50%; SPRENFPDTL: 50 to 75%; KVKSDRSVF: 10 to 20%. Next, FPYSEVTTL: 50 to 75%; FPHSEMTTVM: 50 to 75%; NPSSTTTEF: 50 to 75%. As to MPNSAIPFSM, the peptide exchange yield lay within 50 to 75%.

SPAMTTPSL came in with a peptide exchange yield of 50 to 75%.

Take SPLVTSHIM: the peptide exchange yield was in the range of 50 to 75%. Then FPHSEMTTL, with 50 to 75%.

As for FPHSEMTTV, the peptide exchange yield lay within 50 to 75%.

The molecule LPTQTTSSL displayed a peptide exchange yield of 50 to 75%.

As to HVTKTQATF, the peptide exchange yield fell in the range of 20 to 50%. Then HPVETSSAL, with 50 to 75%; and MPSLSEAMTSF, with 50 to 75%; and SPAETSTNM, with 50 to 75%. Next, LPLGTSMTF: 50 to 75%; IPRNPPPTLL: 50 to 75%.

TPSVVTEGF came in with a peptide exchange yield of 20 to 50%.

In turn, LPYFREFSM yielded a peptide exchange yield of 50 to 75%. Turning to SPNEFYFTV, the peptide exchange yield is 50 to 75%. As to SPSVSSNTY, the peptide exchange yield was in the range of 20 to 50%. Turning to SPAEPSVYATL, the peptide exchange yield was more than 75%.

The molecule VPDQPHPEI had a peptide exchange yield of 50 to 75%. With LPTSESLVSF, the peptide exchange yield lay in the range of 20 to 50%. EPKTATVL had a peptide exchange yield of 20 to 50%. The molecule HPDPVGPGL gave a peptide exchange yield of 20 to 50%. Next, FPNRLNLEA: 50 to 75%; MPLTTGSQGM: 20 to 50%; SPDPSKHLL: 20 to 50%. Next, FPMSPVTSV: 50 to 75%; FPHPEMTTSM: 50 to 75%.

SPSPVPTTL: the peptide exchange yield fell in the range of 50 to 75%. The molecule VPTPVFPTM had a peptide exchange yield of 20 to 50%. Molecule RPMPNLRSV gave a peptide exchange yield of 50 to 75%.

For the origin of these results see US20180222961A1 (IMMATICS BIOTECHNOLOGIES, published 2018).
